Assay results taken from publication PMC12143593, “Selective engineering of condensation properties of single-stranded DNA binding (SSB) protein via its intrinsically disordered linker region”.

Tests used:
Conditions in all cases: protein: recombinant; tags: N-terminal His6-TEV, removed; chain copies: 4; label: fluorescein
EcSSB W136D = EcSSB W136D (Escherichia coli, UniProt P0AGE0 1-178, W136D); assay: fluorescence polarization; n = 1.7; 20 mM Tris-acetate pH 8, 50 mM K-glutamate, 10 mM Mg-acetate, 25 C; 10 nM labeled oligo, SSB concentrations as tetramers
EcSSB WT = EcSSB WT (Escherichia coli, UniProt P0AGE0 1-178); assay: as above
EcSSB R116D-W136D = EcSSB R116D-W136D (Escherichia coli, UniProt P0AGE0 1-178, R116D;W136D); assay: fluorescence polarization; n = 1.8; 20 mM Tris-acetate pH 8, 50 mM K-glutamate, 10 mM Mg-acetate, 25 C; 10 nM labeled oligo, SSB concentrations as tetramers
EcSSB d2G = EcSSB d2G (Escherichia coli, UniProt P0AGE0 1-113+131-178, internal_change); assay: as above
EcSSB d1G = EcSSB d1G (Escherichia coli, UniProt P0AGE0 1-113+121-178, internal_change); assay: fluorescence polarization; n = 2.2; 20 mM Tris-acetate pH 8, 50 mM K-glutamate, 10 mM Mg-acetate, 25 C; 10 nM labeled oligo, SSB concentrations as tetramers

B1: dT79 (ssDNA)
DNA: TTTTTTTTTTTTTTTTTTTTTTTTTTTTTTTTTTTTTTTTTTTTTTTTTTTTTTTTTTTTTTTTTTTTTTTTTTTTTTT
Question: What does the source list for B1?
Answer: Kd (EcSSB W136D): < 10 nM; Kd (EcSSB WT): < 10 nM; Kd (EcSSB R116D-W136D): < 10 nM; Kd (EcSSB d2G): 11 ± 2.5 nM; Kd (EcSSB d1G): 11 ± 2.6 nM
